Measurements published in the supplement of paper PMC9170038.

system: K4 kissing-loop RNA reporter; assay: apparent KD of K4 kissing-loop reporter; higher = weaker reporter binding; conditions: Eterna round: R107; input ligand: FMN 200 uM
Description: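 RNA-MaP round R107: designed RNA switches with theophylline, tryptophan, arginine or FMN aptamers are transcribed on-chip within common flanks. They are titrated with a labelled K4 kissing-loop RNA reporter in RNA-MaP buffer (100 mM Tris pH 7.5, 80 mM KCl, 4 mM MgCl2), without ligand or with the indicated ligand. Median apparent KD per design.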
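Also: bound reporter read as fluorescence of individual clusters on recovered sequencing chips by microscopy, with normalized cluster intensities fitted with a binding model.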

| Sequence | apparent KD of K4 kissing-loop reporter [nM] |
| --- | --- |
| UGUAUGUGAUUUGAUACCAGACCAGCUGGUGGUGUAUGAGUGAUGUUCAUGUUGGUUUGGGUCCCUUGGCAGCAAAUCGCAUACU [KL-SSTheoB30] | 14.5 |
| AGUCCACUCUAAAGAGUGGACCUAAGGGAUACCAGUGAUGUUGGUCACCCUUGGCAGCCCAGGGCCCGGGAUAAACCCGGGCCCA [#09 K4 Theophylline A Exclusion] | 120 |
| UUUUGCGCGUACGAUACCAGUAUCUGUAAGAGUGAUGUUCAGCGCUGAAGACAGCAGCGAUACCCUUGGCAGCGUUACAUGCUAG [theeternabot_sameState_KL_Theo_B_22] | 797 |
| AAUUGAGUGACGGCCGCCACUAGAGUGAUUUUUUUGUUUGAGUGAUGUUUUGAUGUUUGAUUUUGUAGGACCGGGUUGAGUGAUG [qqxzmullin] | 305 |
| UGUAUGGACUGAAGGAGCGGUAGAUAAACUGAGUGAUGUUCGGCAGAUAAAGGCGCAAGCCACCAGGUAGGUCGCAGUCCAUACU [KL-SSArg B3] | 381 |
| UUAUUGAGCGUUUGUGAGAAGGCGUUCUUCAAGGAUAUCGACGUAACGAGAAGGUGAUUCGUUCCGAGUGAUGUUCGGUACGGGC [theeternabot_sameState_KL_FMN_A_4] | 222 |
| UGGACGAAUAUCGAUAAGAUAUUCUGGGAUACCAGUGACGAAAGUCACCCUUGGCAGCUCAACUGCCAGUGAUGUUGGUAGUCCA [Astros-Elo-mod#3] | 238 |
| AGACUACCACACUGUCAAUAGACAGUGAAUUAGGAUAUGCUGAUAAGCAGAAGGAGUGAUGUUCCGAGGUAGUCAAUAAAAUAAU [FmnAX 13 U30+G66] | 220 |
| ACUCCGAGUGAUGUUAAGAGAUUCUCUGUUAAGGAUAUUUUGCGCAAAAGAAGGUAACCCGGUUUUCGUAAUCUGUUAAUGCGGA [theeternabot_exclusion_KL_FMN_A_38] | 572 |
| UCUCAAGCACAGUGAUGUUGUGCUUGGGAAGGAGCGCGUGGGAACGCAGGUAGGUCGCCCGGUAAAUCGCGUCAAUGCUAGAGGC [Arg A Ex t5] | 118 |
| UUCUACGAGUGAUGUUCGUAGUGUAAUCGCUAGGAUAUCGUUUUUUCGAGAAGGAGCGUCGAAGUGAUACGAAAGUAUCGCUUCG [FMN A 13] | 151 |
| UGUCAUUGGUCGGCCGCCACUAGGACCGGGACUUCUCUAGUGAUGUUAGUCUGGUCGGCCGCCACUAGGACCGGGACCGAUGACU [KL-SSTryp-B14 #DoubleAptamer] | 561 |
| AACAGCAAUGCGGCCGCCACUUCGAGUUCAGUGAUGUUGAAAGAAUUAAAUAAAGAUCCCAAGAGGAGGACCGGGCAGUGCUGUU [Default title] | 596 |
| GUAGUUGCGCAAGGAUAUUAGUUAAGUGAUGUUUGAUUCGGUAUUGUUUACGUACACUGACCCGAUUAAGAAGGUGCGGGCAGCG [theeternabot_exclusion_KL_FMN_B_50] | 604 |
| AAAUUUAUAUUAGAUACCAGCAAAUUGAAAGUUUAUUAUGACAAGAGUGAUGUUCUUGUAUGCCCUUGGCAGCUGGUAUGGGUUU [KL-XTheo-B26] | 112 |
| AAAUAAAGCAGUCACCCAGUGAUGUUGGAAGGAGCGUGCGAAAGCACAGGUAGGUCGCCGAUAAAGGACAAAGUCCGUGGCUGCA [#SwitchBubble 29 #K4Early] | 275 |
| UGAUAGGACAGAAGGAGCGGGCUAGUCAAAGACUAGCAAACGUUAAUAACAGGAGUGAUGUUCCAGGUAGGUCGCUGUCCUAUCU [ArgBX 25 #SwitchBubble #StaticStem] | 136 |
| UUUCGUAGAAGUGAUACCAGACUUGAAAGUGAUGUUUUCCAAUAAUUUAAAUUUUUAGCUGUCCCUUGGCAGCACAGUUUAUUUA [JR_Nu_ExcTheophyB_Sub026] | 218 |
| GGUGUUGUUUGUGCUGUUUUCCUCGUUUCUCGAGGACCGGUACGGCCGCCACUCGAGUGAUGUUUGGGUAGCGAUCCUUGUUAGU [Bdazzled - #6 Exc. Tryptophan A] | 335 |
| UUAUAUUUCAGUGAUGUUGAAAAUAUAACAGAGGAUAUGCGUUUAAGCAGAAGGCUGAAAUACUAUACUUUAAUCUAUUAAAUUU [JR_Nu_SSFMNA_Sub027] | 195 |
| GGAUAGGAUAGAGGAUAUGGAAAACACAGAAGUGACUUGUUGUGUUUAUCCAUAGGGAGUGAUGUUCCAGAAGGCUGUCCUAUCG [MatMod 22 - Jieux - Exclusion - FMN B] | 333 |

| Sequence | apparent KD of K4 kissing-loop reporter [nM] |
| --- | --- |
| UGUACCGAGUUAGGAUAUGUCGUCGAAAGACGAAAUGGAGUGAUGUUCCUUAAACUGCGAAAGCAGACAGAAGGGACUUGGUACU [FmnBS 29 U11] | 233 |
| AGAAACUUGUAUGUCGGGUGUGCGCGCGAUACCAGCCAAAUGGAUGGCCCUUGGCAGCGCAGCGAGUGAUGUUCGCCCGCUUGAC [Exclusion Theophylline A GF 22] | 251 |
| AGCAGUCCAGGAUCGAAAGAUCCUGAGGUCCGAGGACCGGUACGGCCGCCACUCGGAGUGAUGUUCCGAAGACUGCAAAAUAAAA [#SwitchBubble 5] | 302 |
| GAGAUAGAGGCGGCCGCCACUAGUGAUGUUGGUGAUGUUAGAUAGAGAAUAGAACGGGUACUCCCUAGGACCGGGCCAGAUGGAG [#04 K4 Tryptophan B Exclusion] | 63.8 |
| AGUGCACUGGCAGGAUAUGUACAGUGAUGUUGUGUAUGUCAGCAAGUCAAAGACUUGCUCUUCUGUGCAGAAGGGCCUGUGUACA [#05 K4 FMN B Exclusion] | 442 |
| AGCUCAGAGUGACUCGAUAAGAGUCACAAACGAGGACCGGUACGGCCGCCACUCGAAAUAACGAGAGUGAUGUUUUCGCUGAGCA [FiskerMod 6 - Jieux - Same State Tryptophan A] | 935 |
| UAAACCAAAUUACGUCACCUUGUCCAAUCUAAGGAUAUGUGAUUCCACAGAAGGUAGCCACGGGAGUGAUGUUCGCGUUAAGGCG [theeternabot_exclusion_KL_FMN_A_31] | 475 |
| GUGCAGUGAUGUUGCACGAGGAAAGACGAUACCAGCCGUAAAUAAGGCCCUUGGCAGCGUGGACUAGCAUAAAGUAUGCUAGCCU [Isenaonle] | 118 |
| CGUACGGUUUCUUUCUUUCCGUACGAGUGCCGAGGACCGGUACGGCCGCCACUCGCUACAGCCUAGUGAUGUUAGGAACGUGUUA | 87.2 |
| CCGAAGAACCAGUGAUGUUGGUUGACUAGACAGGAUAUGAGCAACAUCAGAAGGGUCUGGCUUCGGGAGUAGGUCGCGCUGACCC [Diarrebi] | 482 |
| GGCGGCUGCGCGCAAGCGCAGCCGGCCGAUACCAGCGCGACGGCGCGCCCUUGGCAGCGGCGCCGAGUGAUGUUCGGCCUGCCGG [#2 Same State - Theophylline A Attempt #19 (HarryS)] | 433 |
| GCGCGUCAUGUCAGCGGUGACACUGUCGAUACCAGCGCCGCAAGGCGCCCUUGGCAGCGACGUGCUGGAGUGAUGUUCCAGCGUC [#2 Exclusion - Theophylline A Attempt #22 (HarryS)] | 159 |
| GGGAGAAGAGCGGCCGCCACUCAGACAGCAGCAGAAUAUAGUGAUGUUAUAUAGGAAAGGCGGAGGAGGACCGGGCUUAAGAGGG [#20 K4 Tryptophan B Same State] | 308 |
| AGAUAGGGCUGAAGGAGCGUCGGAAAAGAAAAGAUGAAAUCCAGUGAUGUUGGAUAAAUCCGACAGGUAGGUCGCAGUUUUAUGA [#01 K4 Arginine B Same State] | 126 |
| GGCAGUGAUGUUGCCUAAGCAACGCAUGCAGAGGAUAUUCGUUCGGGAAGAAGGCUGCAGCGUUCUCUCGCGAGUGAUGUUCGCG [Same State FMN A GF 23] | 182 |
| GCCGUAGAUUGAAGGAGCGCCUUCUUACCAAGAGUGAUGUUCUUUGGUACCAUGUUCAGUAGGCAGGUAGGUCGCAAUCUACGGC | 292 |
| AGCAUUAUCAGAAGGAGCGUGUAUAAAUCAAUAGUAUUGUAUUCGAGUGAUGUUCGUAAUACACAGGUAGGUCGCUGAUAUUGCA [JR_ExcArginiB_Sub002] | 182 |
| GCCGUACGCAUGGAUACCAGCGUACGUCACCUAGCAGUGAUGUUGCUAUUGCCACGUAAACGCCCUUGGCAGCCAUGCGUACGGC | 495 |
| CAUACGCAUGGAGGAUAUGAGAUUUCUCAUAUUAUUUAAUAUUCUCAGUGAUGUUGAGAUUUAAACUCAGAAGGCCAUGUGUAUG [Ex FMN B 6] | 388 |
| CUUGUACAUGCCGAGGUAGGUGCGGGUUAGCGAGGACCGGUACGGCCGCCACUCGCCAAGUGAUGUUUGGUCCUUUGGGUCGGCA | 948 |
| AUUUUUUUAUCAGGAUAUUAGUGAUGGUUUGUUUUGUUAGUGAUGUUGAUAUUUGUUUUAUGUAUUUAAGAAGGGAUUGAGAUGU [seesullin] | 67 |

same assay, conditions: Eterna round: R107; input ligand: arginine 13.2 mM

| Sequence | apparent KD of K4 kissing-loop reporter [nM] |
| --- | --- |
| UGUAUGUGAUUUGAUACCAGACCAGCUGGUGGUGUAUGAGUGAUGUUCAUGUUGGUUUGGGUCCCUUGGCAGCAAAUCGCAUACU [KL-SSTheoB30] | 7.4 |
| AGUCCACUCUAAAGAGUGGACCUAAGGGAUACCAGUGAUGUUGGUCACCCUUGGCAGCCCAGGGCCCGGGAUAAACCCGGGCCCA [#09 K4 Theophylline A Exclusion] | 100 |
| UUUUGCGCGUACGAUACCAGUAUCUGUAAGAGUGAUGUUCAGCGCUGAAGACAGCAGCGAUACCCUUGGCAGCGUUACAUGCUAG [theeternabot_sameState_KL_Theo_B_22] | 422 |
| AAUUGAGUGACGGCCGCCACUAGAGUGAUUUUUUUGUUUGAGUGAUGUUUUGAUGUUUGAUUUUGUAGGACCGGGUUGAGUGAUG [qqxzmullin] | 306 |
| UGUAUGGACUGAAGGAGCGGUAGAUAAACUGAGUGAUGUUCGGCAGAUAAAGGCGCAAGCCACCAGGUAGGUCGCAGUCCAUACU [KL-SSArg B3] | 274 |
| UUAUUGAGCGUUUGUGAGAAGGCGUUCUUCAAGGAUAUCGACGUAACGAGAAGGUGAUUCGUUCCGAGUGAUGUUCGGUACGGGC [theeternabot_sameState_KL_FMN_A_4] | 185 |
| UGGACGAAUAUCGAUAAGAUAUUCUGGGAUACCAGUGACGAAAGUCACCCUUGGCAGCUCAACUGCCAGUGAUGUUGGUAGUCCA [Astros-Elo-mod#3] | 142 |
| AGACUACCACACUGUCAAUAGACAGUGAAUUAGGAUAUGCUGAUAAGCAGAAGGAGUGAUGUUCCGAGGUAGUCAAUAAAAUAAU [FmnAX 13 U30+G66] | 204 |
| ACUCCGAGUGAUGUUAAGAGAUUCUCUGUUAAGGAUAUUUUGCGCAAAAGAAGGUAACCCGGUUUUCGUAAUCUGUUAAUGCGGA [theeternabot_exclusion_KL_FMN_A_38] | 408 |
| UCUCAAGCACAGUGAUGUUGUGCUUGGGAAGGAGCGCGUGGGAACGCAGGUAGGUCGCCCGGUAAAUCGCGUCAAUGCUAGAGGC [Arg A Ex t5] | 110 |
